In patent publication US20240270818A1 (PETMEDIX, published 2024):
Numbering of substitutions follows the chain as printed. Names may count otherwise.

B1: PetML 119 (canine p75NTR ECD-canine IgGB wt Fc protein fusion) (Fc fusion)
chain: KEACPTGLYTHSGECCKACNLGEGVAQPCGANQTVCEPCLDSVTFSDVVSATEPCKPCTECVGLQSMSAPCVEADDAVCRCAYGYYQDETTGRCEACRVCEAGSGLVFSCQDRQNTVCEECPDGTYSDEANHVDPCLPCTVCEDTERQLRECTRWADAECEEIPGGGGRENGRVPRPPDCPKCPAPEMLGGPSVFIFPPKPKDTLLIARTPEVTCVVVDLDPEDPEVQISWFVDGKQMQTAKTQPREEQFNGTYRVVSVLPIGHQDWLKGKQFTCKVNNKALPSPIERTISKARGQAHQPSVYVLPPSREELSKNTVSLTCLIKDFFPPDIDVEWQSNGQQEPESKYRTTPPQLDEDGSYFLYSKLSVDKSRWQRGDTFICAVMHEALHNHYTQKSLSHSPGK
notes: The end, 422, is my own count; also called WT molecule
B2: PetML 119-S109Y (canine p75NTR ECD S109Y-canine IgGB wt Fc) (Fc fusion)
chain: KEACPTGLYTHSGECCKACNLGEGVAQPCGANQTVCEPCLDSVTFSDVVSATEPCKPCTECVGLQSMSAPCVEADDAVCRCAYGYYQDETTGRCEACRVCEAGSGLVFYCQDRQNTVCEECPDGTYSDEANHVDPCLPCTVCEDTERQLRECTRWADAECEEIPGRGGGGRENGRVPRPPDCPKCPAPEMLGGPSVFIFPPKPKDTLLIARTPEVTCVVVDLDPEDPEVQISWFVDGKQMQTAKTQPREEQFNGTYRVVSVLPIGHQDWLKGKQFTCKVNNKALPSPIERTISKARGQAHQPSVYVLPPSREELSKNTVSLTCLIKDFFPPDIDVEWQSNGQQEPESKYRTTPPQLDEDGSYFLYSKLSVDKSRWQRGDTFICAVMHEALHNHYTQKSLSHSPGK
notes: Signal peptide (first 19 residues) left out as for m1
B3: PetML 119-D134L (canine p75NTR ECD D134L-canine IgGB wt Fc) (Fc fusion)
chain: B2 chain with Y109S, D134L
notes: as for B2
B4: PetML 119-E75T (canine p75NTR ECD E75T-canine IgGB wt Fc) (Fc fusion)
chain: B2 chain with D75T, Y109S
notes: as for B2
B5: PetML 119-S109H (canine p75NTR ECD S109H-canine IgGB wt Fc) (Fc fusion)
chain: B2 chain with Y109H
notes: Signal peptide left out as for m1; If the listing holds it too, the entry is 425 residues long
B6: PetML 119-V133R (canine p75NTR ECD V133R-canine IgGB wt Fc) (Fc fusion)
chain: B2 chain with Y109S, V133R
notes: as for B2
B7: Bedinvetmab (antibody, INN chains, looked up, V domains shown)
VH: EVQLVESGGDLVKPGGSLRLSCVASGFTFSSHGMHWVRQSPGKGLQWVAVINSGGSSTYYTDAVKGRFTISRDNAKNTVYLQMNSLRAEDTAMYYCAKESVGGWEQLVGPHFDYWGQGTLVIVSS
VL: QSVLTQPTSVSGSLGQRVTISCSGSTNNIGILGASWYQLFPGKAPKLLVYGNGNRPSGVPDRFSGADSGDSVTLTITGLQAEDEADYYCQSFDTTLGAHVFGGGTHLTVL

molecular target: T1, human Nerve Growth Factor (human, UniProt P01138 122-241); assay: SPR (Biacore 8K), fusion captured on Protein A chip, hNGF as analyte, multi-cycle kinetics
T1 construct: Bought recombinant protein; also called hNGF; human NGF
Description: (§1) Binding affinity of fusion proteins to human and rat NGF was assessed using Biacore 8K (Cytiva). Briefly, Protein A Sensor Chip (Cytiva) was docked into Biacore 8K, equilibrated for 30′ at RT and then Running Buffer (10 mM HEPES pH7.4 150 mM NaCl 3 mM EDTA and 0.005% Tween20) was applied to the SPR chip surface.
(§2) These were immobilised using 90 see association at 10 uL/min as capturing step, followed by injection of running buffer to remove any unbound product.
(§3) Kinetics were assessed using multi-cycle kinetics with capture step method (30 see association-300 see dissociation) followed by regeneration step (0.1M Glycine pH2.2 contact time 60 see FR 30 uL/min). Kinetics quantification have been performed using Biacore Insight following standard analyses methods.

T1 sequence (P01138 122-241 limits assumed): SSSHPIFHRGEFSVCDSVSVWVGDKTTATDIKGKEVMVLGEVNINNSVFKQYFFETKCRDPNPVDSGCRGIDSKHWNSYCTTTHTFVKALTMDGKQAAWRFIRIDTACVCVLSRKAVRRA

| Binder | Kd [nM] |
| --- | --- |
| B1 | 0.309 |
| B2 | 0.225 |
| B3 | 6.8 |
| B4 | 12.4 |
| B5 | 0.267 |
| B6 | 0.346 |

molecular target: NGF (species not stated at the place) (Homo sapiens (Human), UniProt P01138 122-241); assay: cell-based or functional assay

| Binder | Bottom (%), PathHunter TrkA activation assay [%] | IC50 (nM), PathHunter TrkA activation assay [nM] | Top (%), PathHunter TrkA activation assay [%] |
| --- | --- | --- | --- |
| B1 | 9.5 | 8.04 | – |
| B2 | 7.79 | 2.15 | 87.3 |
| B3 | 53.7 | 20.8 | 82.7 |
| B4 | 44.5 | 82.6 | 72.6 |
| B5 | 10.3 | 2.2 | 48.3 |
| B6 | 14.3 | 2.56 | 49.3 |

molecular target: NGF (species not stated at the place) (Homo sapiens (Human)) (UniProt P01138); assay: cell-based or functional assay

| Binder | Bottom (%), PathHunter TrkA activation assay [%] | Top (%), PathHunter TrkA activation assay [%] | TrkA inhibition, PathHunter luminescence [%] |
| --- | --- | --- | --- |
| B7 | 5.35 | 123 | 100 |

molecular target: T1, human Nerve Growth Factor; assay: cell-based or functional assay

| Binder | IC50 (nM), inhibition of TF-1 cell proliferation [nM] | ICMAX (%), inhibition of TF-1 cell proliferation [%] |
| --- | --- | --- |
| B1 | 4.46 | 73.1 |
| B2 | 2.15 | 93.5 |
| B3 | 329 | 70.5 |
| B4 | 18.2 | 72.5 |
| B5 | 0.17 | 88.5 |
| B6 | 5.06 | 80.5 |

molecular target: T2, rat Nerve Growth Factor (rat, UniProt P25427 122-241, limits assumed); assay: SPR (Biacore 8K), fusion captured on Protein A chip
T2 construct: Bought recombinant protein; also called rNGF; rat NGF
Description: as §1, §2, §3

T2 sequence (P25427 122-241 limits assumed): as the sequence (P01138 122-241 limits assumed) above, with S3T, I6V, R9M, M37T, D60A, D65E, M92T, G94D, V117A, A120G counted along it

| Binder | binding result |
| --- | --- |
| B1 | binds |
| B2 | binds |
| B5 | binds |
| B6 | binds |

molecular target: T1, human Nerve Growth Factor; assay: as above
Description: as §1, §2, §3

| Binder | fold reduced affinity relative to PetML 119 wt [fold] |
| --- | --- |
| B3 | 20 |
| B4 | 40 |

molecular target: NGF (species not stated at the place) (Homo sapiens (Human)) (UniProt P01138); assay: cell-based or functional assay; remark: another data set of the same source

| Binder | Bottom (%), PathHunter TrkA activation assay [%] | Top (%), PathHunter TrkA activation assay [%] |
| --- | --- | --- |
| B7 | 2.11 | 93.5 |
